Data as given in PMC7065454 (Molecular cell, 2020).
Values joined by “and” are separate entries in the source; they are usually repeats but may differ in a detail not shown here. Equal values may be shown once. Read-outs that look alike come from different tables or passages of the source.

Assays:
[1] = target: T1, Vm NucC (Vibrio metoecus, UniProt P0DUD6); experiment: plasmid digestion assay, weak activation; format: biochemical
T1 sequence (P0DUD6 1-245): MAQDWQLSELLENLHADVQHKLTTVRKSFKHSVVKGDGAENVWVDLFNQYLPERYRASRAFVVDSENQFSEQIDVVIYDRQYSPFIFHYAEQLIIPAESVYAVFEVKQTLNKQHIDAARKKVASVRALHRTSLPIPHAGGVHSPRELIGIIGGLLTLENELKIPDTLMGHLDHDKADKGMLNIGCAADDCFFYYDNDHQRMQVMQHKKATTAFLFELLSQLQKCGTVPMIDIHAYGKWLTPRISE

[2] = target: T2, Ec NucC (Escherichia coli, UniProt D7Y2H5); experiment: ITC; format: binding
[3] = target: T2, Ec NucC; experiment: ITC; format: binding; remark: listed apart in the source
[4] = target: Pa NucC (Pseudomonas aeruginosa, UniProt P0DTF8, D73N); experiment: co-crystal structure at […] Å; format: binding
[5] = target: T2, Ec NucC; experiment: ITC; format: binding; remark: listed apart in the source
[6] = target: the molecule itself; experiment: SEC-MALS
[7] = target: the molecule itself; experiment: crystal structure
[8] = target: the molecule itself; experiment: SEC-MALS; remark: listed apart in the source

In the case of `Nc1nc2c(ncn2[C@@H]2O[C@@H]3COP(=O)(O)O[C@H]4[C@@H](O)[C@H](n5cnc6c(N)ncnc65)O[C@@H]4COP(=O)(O)O[C@H]4[C@@H](O)[C@H](n5cnc6c(N)ncnc65)O[C@@H]4COP(=O)(O)O[C@H]3[C@H]2O)c(=O)[nH]1` [cAAG], the “plasmid digestion assay, weak activation” value [1] is reported as “weakly activated by both cAA and cAAG”.

For `Nc1ncnc2c1ncn2[C@@H]1O[C@@H]2COP(=O)(O)O[C@H]3[C@@H](O)[C@H](n4cnc5c(N)ncnc54)O[C@@H]3COP(=O)(O)O[C@H]2[C@H]1O` [cAA], the “plasmid digestion assay, weak activation” value [1] was “weakly activated by both cAA and cAAG”.

`Nc1ncnc2c1ncn2[C@@H]1O[C@H](COP(=O)(O)O[C@H]2[C@@H](O)[C@H](n3cnc4c(N)ncnc43)O[C@@H]2COP(=O)(O)O)[C@@H](O)[C@H]1O` [5′-pApA] gave a Kd [2] of 4400 nM.

With `Nc1ncnc2c1ncn2[C@@H]1O[C@@H]2COP(=O)(O)O[C@H]3[C@@H](O)[C@H](n4cnc5c(N)ncnc54)O[C@@H]3COP(=O)(O)O[C@H]3[C@@H](O)[C@H](n4cnc5c(N)ncnc54)O[C@@H]3COP(=O)(O)O[C@H]2[C@H]1O` [cAAA] the Kd [3] was 700 nM and the “co-crystal structure at 1.45 Å; SEC-MALS hexamer assembly of Pa NucC” value [4] was “We obtained crystals of P. aeruginosa ATCC27853 NucC D73N mutant bound to cAAA”.

For `Nc1ncnc2c1ncn2[C@@H]1O[C@@H]2COP(=O)(O)O[C@H]3[C@@H](O)[C@H](n4cnc5c(N)ncnc54)O[C@@H]3COP(=O)(O)O[C@H]2[C@H]1O` [3′,3′ cyclic di-AMP], the Kd [5] was 2600 nM.

B1: E. coli MS115-1 NucC (wild type) (enzyme, UniProt D7Y2H5 1-241, looked up)
chain: MSDWSLSQLFASLHEDIQLRLGTARKAFQHPGAKGDASEGVWIEMLDTYLPKRYQAANAFVVDSLGNFSDQIDVVVFDRQYSPFIFKFNEQIIVPAESVYAVFEAKQSASADLVAYAQRKVASVRRLHRTSLPIPHAGGTYPAKPLIPILGGLLTFESDWSPALGMSFDKALNGDLSDGRLDMGCVASHGHFYFNNIDSKFNFEHGNKPATAFLFRLIAQLQFSGTVPMIDIDAYGKWLAN
In the case of B1, the “stoichiometry N” value [6] is reported as 3 and the “stoichiometry N” value [7] is reported as 6.

B2: Ec NucC L19A mutant with D73N (SEC-MALS sample) (enzyme, E. coli MS115-1, UniProt D7Y2H5 1-241, looked up)
chain: MSDWSLSQLFASLHEDIQARLGTARKAFQHPGAKGDASEGVWIEMLDTYLPKRYQAANAFVVDSLGNFSDQINVVVFDRQYSPFIFKFNEQIIVPAESVYAVFEAKQSASADLVAYAQRKVASVRRLHRTSLPIPHAGGTYPAKPLIPILGGLLTFESDWSPALGMSFDKALNGDLSDGRLDMGCVASHGHFYFNNIDSKFNFEHGNKPATAFLFRLIAQLQFSGTVPMIDIDAYGKWLAN
B2: binds [8].

B3: Ec NucC W4A mutant with D73N (SEC-MALS sample) (enzyme, E. coli MS115-1, UniProt D7Y2H5 1-241, looked up)
chain: MSDASLSQLFASLHEDIQLRLGTARKAFQHPGAKGDASEGVWIEMLDTYLPKRYQAANAFVVDSLGNFSDQINVVVFDRQYSPFIFKFNEQIIVPAESVYAVFEAKQSASADLVAYAQRKVASVRRLHRTSLPIPHAGGTYPAKPLIPILGGLLTFESDWSPALGMSFDKALNGDLSDGRLDMGCVASHGHFYFNNIDSKFNFEHGNKPATAFLFRLIAQLQFSGTVPMIDIDAYGKWLAN
B3: binds [8].

B4: Ec NucC L19D mutant with D73N (SEC-MALS sample) (enzyme, E. coli MS115-1, UniProt D7Y2H5 1-241, looked up)
chain: MSDWSLSQLFASLHEDIQDRLGTARKAFQHPGAKGDASEGVWIEMLDTYLPKRYQAANAFVVDSLGNFSDQINVVVFDRQYSPFIFKFNEQIIVPAESVYAVFEAKQSASADLVAYAQRKVASVRRLHRTSLPIPHAGGTYPAKPLIPILGGLLTFESDWSPALGMSFDKALNGDLSDGRLDMGCVASHGHFYFNNIDSKFNFEHGNKPATAFLFRLIAQLQFSGTVPMIDIDAYGKWLAN
B4 was tested, and the “stoichiometry N” value [8] was 3.

B5: P. aeruginosa ATCC 27853 NucC (wild type) (enzyme)
chain: MSQWSLSQLLSSLHEDIQQRLSVVRKTFGHPGTKGDASENVWIDMLDTYLPKRYQAAKAHVVDSLGNFSQQIDVVVFDRQYSPFIFTYENETIIPAESVYAVFEAKQTADAGLVAYAQEKVASVRRLHRTSLPIPHAGGTYPAKPLIPILGGLLTFESEWSPALGPSMDKALNANLTEGRLDIGCVAAHGHFFYDQASGAYSYTNENKPATAFLFKLIAQLQFSGTVPMIDVEAYGQWLTK
B5 was tested, and the “stoichiometry N” value [6] was 3 and the “stoichiometry N” value [8] was 6.

B6: Vibrio metoecus sp. RC341 NucC (enzyme, UniProt P0DUD6 1-245, looked up)
chain: MAQDWQLSELLENLHADVQHKLTTVRKSFKHSVVKGDGAENVWVDLFNQYLPERYRASRAFVVDSENQFSEQIDVVIYDRQYSPFIFHYAEQLIIPAESVYAVFEVKQTLNKQHIDAARKKVASVRALHRTSLPIPHAGGVHSPRELIGIIGGLLTLENELKIPDTLMGHLDHDKADKGMLNIGCAADDCFFYYDNDHQRMQVMQHKKATTAFLFELLSQLQKCGTVPMIDIHAYGKWLTPRISE
With B6 the “stoichiometry N” value [6] was 3 and 6.
